Broadly, the IC50 is the midpoint of a concentration-inhibition curve. The low end stands for higher potency, the high end for lower potency.

Assay [1] deals with T1, human fibronectin (human, UniProt P02751). Put plainly: solid-phase competition, 125I-fibronectin on coated fibronectin.
Assay [2] concerns the target T1, human fibronectin. Put plainly: solid-phase competition, 125I-14 kDa fragment on coated fibronectin.

Regarding NAPQPSHISKYILRWRPKNSVGRWKEATIPG [polypeptide P1], the values for the half-maximal inhibitory concentration (IC50) with human fibronectin [1] and with human fibronectin [2] were approximately 1000 nM and 1000 nM, respectively.

The values above are taken from patent US5837813, “Fibronectin Type III polypeptides” (La Jolla Cancer Research Foundation, dated 1998).
